In article PMC4866770 (PLoS ONE, 2016):

Biological target: amyloid precursor protein (APP) (human (endogenous in HEK293), UniProt P05067 18-770)
Assay: cell-based or functional assay

Chain of amyloid precursor protein (APP) (P05067 18-770): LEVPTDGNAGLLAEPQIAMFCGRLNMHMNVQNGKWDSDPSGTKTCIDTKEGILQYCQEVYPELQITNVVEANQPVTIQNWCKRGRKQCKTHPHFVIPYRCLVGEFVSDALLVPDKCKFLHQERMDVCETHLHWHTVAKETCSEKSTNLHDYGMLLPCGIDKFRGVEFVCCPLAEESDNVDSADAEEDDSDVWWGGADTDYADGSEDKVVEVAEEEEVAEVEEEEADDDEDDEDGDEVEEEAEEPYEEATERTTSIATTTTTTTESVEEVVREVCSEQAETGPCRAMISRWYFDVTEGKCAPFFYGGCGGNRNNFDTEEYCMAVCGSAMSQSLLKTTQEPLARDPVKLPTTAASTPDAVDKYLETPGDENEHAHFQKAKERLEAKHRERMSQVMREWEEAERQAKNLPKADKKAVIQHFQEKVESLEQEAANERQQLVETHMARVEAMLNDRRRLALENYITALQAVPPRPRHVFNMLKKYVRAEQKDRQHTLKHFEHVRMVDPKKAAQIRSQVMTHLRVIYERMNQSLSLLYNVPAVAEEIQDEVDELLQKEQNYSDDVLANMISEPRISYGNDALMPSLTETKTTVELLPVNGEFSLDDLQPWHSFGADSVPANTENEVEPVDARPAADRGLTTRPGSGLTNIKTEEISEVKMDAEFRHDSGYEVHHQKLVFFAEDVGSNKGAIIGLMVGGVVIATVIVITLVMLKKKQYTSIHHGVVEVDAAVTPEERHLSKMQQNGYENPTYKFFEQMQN

B1: FLAG-Fe65 (natural protein, human, UniProt O00213-2 1-708, looked up)
chain: MSVPSSLSQSAINANSHGGPALSLPLPLHAAHNQLLNAKLQATAVGPKDLRSAMGEGGGPEPGPANAKWLKEGQNQLRRAATAHRDQNRNVTLTLAEEASQEPEMAPLGPKGLIHLYSELELSAHNAANRGLRGPGLIISTQEQGPDEGEEKAAGEAEEEEEDDDDEEEEEDLSSPPGLPEPLESVEAPPRPQALTDGPREHSKSASLLFGMRNSAASDEDSSWATLSQGSPSYGSPEDTDSFWNPNAFETDSDLPAGWMRVQDTSGTYYWHIPTGTTQWEPPGRASPSQGSSPQEESQLTWTGFAHGEGFEDGEFWKDEPSDEAPMELGLKEPEEGTLTFPAQSLSPEPLPQEEEKLPPRNTNPGIKCFAVRSLGWVEMTEEELAPGRSSVAVNNCIRQLSYHKNNLHDPMSGGWGEGKDLLLQLEDETLKLVEPQSQALLHAQPIISIRVWGVGRDSGRDFAYVARDKLTQMLKCHVFRCEAPAKNIATSLHEICSKIMAERRNARCLVNGLSLDHSKLVDVPFQVEFPAPKNELVQKFQVYYLGNVPVAKPVGVDVINGALESVLSSSSREQWTPSHVSVAPATLTILHQQTEAVLGECRVRFLSFLAVGRDVHTFAFIMAAGPASFCCHMFWCEPNAASLSEAVQAACMLRYQKCLDARSQASTSCLPAPPAESVARRVGWTVRRGVQSLWGSLKPKRLGAHTP
  GAL4-dependent firefly luciferase reporter in HEK293 with pMST-APP (full-length APP fused to the GAL4 DNA binding domain): increase of APP transcriptional activity: ~14 fold
